Laboratory results: the Immune Epitope Database (IEDB)

Assays:
HLA-B*08:01 [1] = test: IEDB peptide-MHC binding, purified MHC/competitive/radioactivity; filed as Kd, often an IC50 or EC50 that approximates it; ≥ and ≤ were set here for values at or beyond the usual limits of such assays
HLA-A*24:02 = test: as above; settings: source organism: Dengue virus 1 Brazil/97-11/1997
HLA-A*23:01 = test: as above; settings: source organism: Dengue virus 1 Brazil/97-11/1997
HLA-B*15:01 [2] = test: IEDB peptide-MHC binding, purified MHC/direct/fluorescence; filed as Kd, often an IC50 or EC50 that approximates it; ≥ and ≤ were set here for values at or beyond the usual limits of such assays
HLA-A*31:01 [3] = test: as above
HLA-A*01:01 = test: as above
HLA-B*08:01 [4] = test: as above
HLA-A*26:01 [5] = test: as above
HLA-B*40:01 = test: as above
HLA-A*03:01 [6] = test: as above
HLA-A*69:01 = test: as above
HLA-B*44:02 = test: as above
HLA-A*02:01 [7] = test: as above
HLA-B*58:01 = test: as above
HLA-B*07:02 = test: as above
HLA-A*11:01 = test: as above
HLA-B*27:05 = test: as above
HLA-A*31:01 [8] = test: IEDB peptide-MHC binding, purified MHC/competitive/radioactivity; filed as Kd, often an IC50 or EC50 that approximates it; ≥ and ≤ were set here for values at or beyond the usual limits of such assays; settings: source organism: SARS coronavirus Tor2
HLA-A*68:01 = test: as above; settings: source organism: SARS coronavirus Tor2
HLA-A*33:01 = test: as above; settings: source organism: SARS coronavirus Tor2
HLA-B*46:01 [9] = test: IEDB peptide-MHC binding, purified MHC/competitive/fluorescence; filed as Kd, often an IC50 or EC50 that approximates it; ≥ and ≤ were set here for values at or beyond the usual limits of such assays
HLA-A*02:06 = test: IEDB peptide-MHC binding, purified MHC/competitive/radioactivity; filed as Kd, often an IC50 or EC50 that approximates it; ≥ and ≤ were set here for values at or beyond the usual limits of such assays
HLA-A*02:03 = test: as above
HLA-A*02:02 = test: as above
HLA-A*24:03 = test: IEDB peptide-MHC binding, purified MHC/direct/fluorescence; filed as Kd, often an IC50 or EC50 that approximates it; ≥ and ≤ were set here for values at or beyond the usual limits of such assays
HLA-A*26:01 [10] = test: IEDB peptide-MHC binding, purified MHC/competitive/fluorescence; filed as Kd, often an IC50 or EC50 that approximates it; ≥ and ≤ were set here for values at or beyond the usual limits of such assays; settings: source organism: Escherichia coli
HLA-A*02:01 [11] = test: as above; settings: source organism: Escherichia coli
HLA-B*46:01 [12] = test: IEDB peptide-MHC binding, purified MHC/direct/fluorescence; filed as Kd, often an IC50 or EC50 that approximates it; ≥ and ≤ were set here for values at or beyond the usual limits of such assays
HLA-A*02:01 [13] = test: IEDB peptide-MHC binding, purified MHC/competitive/radioactivity; filed as Kd, often an IC50 or EC50 that approximates it; ≥ and ≤ were set here for values at or beyond the usual limits of such assays
HLA-A*30:01 = test: as above; settings: source organism: Dengue virus 2 Jamaica/1409/1983
HLA-A*03:01 [14] = test: as above; settings: source organism: Dengue virus 2 Jamaica/1409/1983
HLA-B*15:01 [15] = test: as above; settings: source organism: Vaccinia virus WR
HLA-A*68:02 = test: as above
HLA-B*51:01 = test: IEDB peptide-MHC binding, purified MHC/competitive/fluorescence; filed as Kd, often an IC50 or EC50 that approximates it; ≥ and ≤ were set here for values at or beyond the usual limits of such assays; settings: source organism: Campylobacter jejuni subsp. jejuni NCTC 11168 = ATCC 700819
HLA-A*30:02 = test: IEDB peptide-MHC binding, purified MHC/competitive/radioactivity; filed as Kd, often an IC50 or EC50 that approximates it; ≥ and ≤ were set here for values at or beyond the usual limits of such assays; settings: source organism: Dengue virus 3 Martinique/1243/1999
[16] = source organism: Vibrio cholerae
[17] = source organism: Vaccinia virus WR
[18] = source organism: Giardia lamblia ATCC 50803
[19] = source organism: Mammarenavirus lassaense
[20] = source organism: Triticum aestivum
[21] = source organism: dengue virus type 3
[22] = source organism: Trypanosoma cruzi
[23] = source organism: Salmonella enterica subsp. enterica serovar Typhimurium

VFKKRNLTI gave a Kd (HLA-B*08:01 [1]; source organism: Dengue virus 1 Brazil/97-11/1997) of 75.9 nM, a Kd (HLA-A*24:02) of 882 nM and a Kd (HLA-A*23:01) of 198 nM.

Work on AEIDRSFKP yielded a Kd (HLA-B*15:01 [2]; [16]) of no less than 20000 nM, a Kd (HLA-A*31:01 [3]; [16]) of no less than 20000 nM and a Kd (HLA-A*01:01; [16]) of no less than 20000 nM. The Kd (HLA-B*08:01 [4]; [16]) was no less than 20000 nM, the Kd (HLA-A*26:01 [5]; [16]) was no less than 20000 nM and the Kd (HLA-B*40:01; [16]) was 1510 nM. It also gave a Kd (HLA-A*03:01 [6]; [16]) of no less than 20000 nM, a Kd (HLA-A*69:01; [16]) of no less than 20000 nM and a Kd (HLA-B*44:02; [16]) of no less than 20000 nM. It also gave a Kd (HLA-A*02:01 [7]; [16]) of no less than 20000 nM, a Kd (HLA-B*58:01; [16]) of no less than 20000 nM and a Kd (HLA-B*07:02; [16]) of no less than 20000 nM. The Kd (HLA-A*11:01; [16]) was no less than 20000 nM and the Kd (HLA-B*27:05; [16]) was no less than 20000 nM.

YIFFASFYY gave a Kd (HLA-A*31:01 [8]) of 784 nM, a Kd (HLA-A*68:01) of 1.7 nM and a Kd (HLA-A*33:01) of 641 nM. It also gave a Kd (HLA-B*15:01 [2]; source organism: SARS-CoV1) of 3710 nM, a Kd (HLA-A*26:01 [5]; source organism: SARS-CoV1) of 527 nM and a Kd (HLA-A*69:01; source organism: SARS-CoV1) of 738 nM. For the same sequence, the Kd (HLA-A*02:01 [7]; source organism: SARS-CoV1) was 6820 nM, the Kd (HLA-B*58:01; source organism: SARS-CoV1) was 3120 nM and the Kd (HLA-B*46:01 [9]; source organism: SARS-CoV1) was no less than 20000 nM.

YLLMHLVSL gave a Kd (HLA-A*02:06; [17]) of 0.254 nM, a Kd (HLA-B*08:01 [1]; [17]) of 1160 nM and a Kd (HLA-A*02:03; [17]) of 1.4 nM. It also gave a Kd (HLA-A*02:02; [17]) of 0.175 nM.

IYKNKISDF showed a Kd (HLA-A*24:03; source organism: Cryptosporidium parvum) of 130 nM.

In the case of ELISSAFKV, the Kd (HLA-A*26:01 [10]) is reported as 4060 nM and the Kd (HLA-A*02:01 [11]) is reported as 17.6 nM.

AQAVMEMTY was tested, and the Kd (HLA-B*46:01 [12]; source organism: Yellow fever virus) was no less than 20000 nM.

In the case of RILGAVAKV, the Kd (HLA-A*02:01 [13]; source organism: Homo sapiens) is reported as 91 nM.

MLRTRVGTK showed a Kd (HLA-B*08:01 [1]; source organism: Dengue virus 2 Jamaica/1409/1983) of 1110 nM, a Kd (HLA-A*30:01) of 333 nM and a Kd (HLA-A*03:01 [14]) of 25.6 nM.

EFINKFLEF showed a Kd (HLA-B*15:01 [15]) of 359 nM and a Kd (HLA-B*08:01 [1]; [17]) of 370 nM.

LSRYVARL gave a Kd (HLA-A*02:01 [13]; source organism: Hepatitis B virus) of no less than 50000 nM.

DIIRAHPWF was tested, and the Kd (HLA-B*15:01 [2]; [18]) was 16600 nM, the Kd (HLA-A*31:01 [3]; [18]) was no less than 20000 nM and the Kd (HLA-A*01:01; [18]) was no less than 20000 nM. The Kd (HLA-B*08:01 [4]; [18]) was 9920 nM, the Kd (HLA-A*26:01 [5]; [18]) was 286 nM and the Kd (HLA-B*40:01; [18]) was no less than 20000 nM. It also gave a Kd (HLA-A*03:01 [6]; [18]) of 8160 nM, a Kd (HLA-A*69:01; [18]) of no less than 20000 nM and a Kd (HLA-B*44:02; [18]) of no less than 20000 nM. The Kd (HLA-B*58:01; [18]) was no less than 20000 nM, the Kd (HLA-B*07:02; [18]) was no less than 20000 nM and the Kd (HLA-A*11:01; [18]) was no less than 20000 nM. The Kd (HLA-B*27:05; [18]) was no less than 20000 nM.

Sequence KQFKQDAKY has a Kd (HLA-B*15:01 [2]; [19]) of 173 nM and a Kd (HLA-B*46:01 [12]; [19]) of no less than 20000 nM.

In the case of PYATGPLVF, the Kd (HLA-A*24:03; source organism: Mycobacterium tuberculosis) is reported as 382 nM.

SQVSFQQPL was tested, and the Kd (HLA-A*02:06; [20]) was 14.3 nM, the Kd (HLA-A*02:03; [20]) was 138 nM and the Kd (HLA-A*02:02; [20]) was 4.46 nM. It also gave a Kd (HLA-A*02:01 [13]; [20]) of 256 nM and a Kd (HLA-A*68:02; [20]) of 206 nM.

AAGLQDCT gave a Kd (HLA-A*02:01 [13]; source organism: Hepatitis C virus (isolate 1)) of no less than 50000 nM.

For SLNFMGYVI, the Kd (HLA-A*02:01 [13]; source organism: Hepatitis B virus ayw/France/Tiollais/1979) was 1320 nM.

Work on LSILPFFIV yielded a Kd (HLA-B*51:01) of no less than 20000 nM.

TSEHGGRAY gave a Kd (HLA-A*30:02) of no less than 67200 nM, a Kd (HLA-B*15:01 [2]; [21]) of 248 nM and a Kd (HLA-A*31:01 [3]; [21]) of no less than 20000 nM. For the same sequence, the Kd (HLA-A*01:01; [21]) was 337 nM, the Kd (HLA-B*40:01; [21]) was no less than 20000 nM and the Kd (HLA-A*03:01 [6]; [21]) was no less than 20000 nM. For the same sequence, the Kd (HLA-A*69:01; [21]) was no less than 20000 nM, the Kd (HLA-B*44:02; [21]) was no less than 20000 nM and the Kd (HLA-A*02:01 [7]; [21]) was no less than 20000 nM. For the same sequence, the Kd (HLA-B*58:01; [21]) was no less than 20000 nM, the Kd (HLA-B*07:02; [21]) was no less than 20000 nM and the Kd (HLA-A*11:01; [21]) was no less than 20000 nM. For the same sequence, the Kd (HLA-B*27:05; [21]) was no less than 20000 nM.

LLGLWGIAAS was tested, and the Kd (HLA-A*02:06; [22]) was 9130 nM, the Kd (HLA-A*02:03; [22]) was 680 nM and the Kd (HLA-A*02:02; [22]) was 1580 nM. For the same sequence, the Kd (HLA-A*02:01 [13]; [22]) was 2500 nM and the Kd (HLA-A*68:02; [22]) was no less than 111000 nM.

With YQKKNASVY the Kd (HLA-B*15:01 [2]; [23]) was 330 nM, the Kd (HLA-B*27:05; [23]) was 5060 nM and the Kd (HLA-B*46:01 [9]; source organism: Salmonella enterica subsp. enterica serovar Typhi) was 293 nM.

Work on VIQLNRKSY yielded a Kd (HLA-B*46:01 [12]; source organism: West Nile virus) of no less than 20000 nM.

LLGLWGFAAA showed a Kd (HLA-A*02:06; [22]) of 49.4 nM, a Kd (HLA-A*02:03; [22]) of 0.552 nM and a Kd (HLA-A*02:02; [22]) of 28.8 nM. The Kd (HLA-A*02:01 [13]; [22]) was 69.1 nM and the Kd (HLA-A*68:02; [22]) was no less than 125000 nM.

Work on TMDGILKSI yielded a Kd (HLA-A*02:01 [13]; source organism: Lassa virus GA391) of no less than 25000 nM.

With IRQMEGEGVL the Kd (HLA-B*08:01 [1]; source organism: Dengue virus 3 Martinique/1243/1999) was 232 nM.

GLLPLLLLLL showed a Kd (HLA-A*02:06; [22]) of 16.5 nM, a Kd (HLA-A*02:03; [22]) of 89.3 nM and a Kd (HLA-A*02:02; [22]) of 89.6 nM. For the same sequence, the Kd (HLA-A*02:01 [13]; [22]) was 66 nM and the Kd (HLA-A*68:02; [22]) was no less than 28200 nM.

In the case of TQLMPFGCLL, the Kd (HLA-A*02:01 [13]; source organism: Homo sapiens) is reported as 257 nM.

MNLYSFTIV was tested, and the Kd (HLA-B*08:01 [1]; source organism: Vaccinia virus Copenhagen) was 1810 nM.

For SYLQAIGIL, the Kd (HLA-A*24:03; source organism: Listeria monocytogenes) was 1.1 nM.
